The values that follow come from article PMC4908395, “Conformational flexibility related to enzyme activity: evidence for a dynamic active-site gatekeeper function of Tyr^215 in Aerococcus viridans lactate oxidase” (Scientific Reports, 2016).

Usually Km stands for the concentration of substrate that gives half-maximal velocity. As usually defined, the kcat is the number of substrate molecules converted per active site and unit of time at saturation. In general, stoichiometry N refers to the number of molecules, sites or subunits per partner or assembly.

Series [1] has as its target T1, avLOX (Aerococcus viridans L-lactate oxidase) (Aerococcus viridans, UniProt Q44467).
T1 construct: wild type from Roche (grade 1, lyophilized); Y215 variants from plasmid pLO-1 in E. coli BL21 (DE3), no tag stated; missing residues 1-7 modeled for simulation only
T1 sequence (Q44467 1-374): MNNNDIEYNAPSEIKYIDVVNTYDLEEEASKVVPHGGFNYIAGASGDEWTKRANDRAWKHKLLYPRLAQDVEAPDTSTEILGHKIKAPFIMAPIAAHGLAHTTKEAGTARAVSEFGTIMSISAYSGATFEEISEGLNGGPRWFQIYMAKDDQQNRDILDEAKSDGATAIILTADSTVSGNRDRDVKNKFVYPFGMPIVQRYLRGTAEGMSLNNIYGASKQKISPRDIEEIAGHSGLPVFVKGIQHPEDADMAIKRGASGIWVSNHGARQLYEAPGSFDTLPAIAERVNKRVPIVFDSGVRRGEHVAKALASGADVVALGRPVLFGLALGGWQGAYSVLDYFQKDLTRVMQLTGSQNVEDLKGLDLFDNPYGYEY
Kind of series: stopped-flow anaerobic FMN reduction, […] nm, hyperbolic fit. The series is classed as biochemical. As to conditions: pH 5.5, 20 °C, 50 mM potassium phosphate, read-out: Enzyme / Wild-type avLOX / Reaction pH / 5.5.

The subject of series [2] is C[C@H](O)C(=O)O. The series can be described thus: steady-state initial rates. Format: biochemical, Aerococcus viridans. Particulars: pH 6.5, 20 °C, air-saturated (250 μM O2), 50 mM potassium phosphate.
Series [3] has as its system C[C@H](O)C(=O)O. Kind of series: purified protein. Particulars: pH 6.5, 20 °C, air-saturated (250 μM O2), 50 mM potassium phosphate.
Substrate in series [4]: C[C@H](O)C(=O)O
The series can be described thus: purified protein. As to conditions: pH 6.5, 20 °C, air-saturated (250 μM O2), 50 mM potassium phosphate. The source holds these as a separate data set.

Series [5] deals with the molecule itself. Kind of series: crystal structure; hanging drop vapor diffusion, 20 °C; 10 mg/mL protein in 50 mM potassium phosphate pH 7.0 mixed with 30% polyethylene glycol, 50 mM Tris-HCl pH 8.0, 50 mM pyruvate; spacegroup P2_(1), 2.6 Å.

For `C[C@H](O)C(=O)O` [L-lactate], in series [1], the Kd was found to be 3 ± 0.4 mM.
In the case of “avLOX (Aerococcus viridans L-lactate oxidase) (Aerococcus viridans ATCC 11563 = CCUG 4311; Y215F)”, in series [2], the Michaelis-Menten constant (Km) worked out at 130 ± 10 µM and the catalytic constant (kcat) came out at 22 ± 2 s⁻¹.
Regarding “avLOX (Aerococcus viridans L-lactate oxidase) (Aerococcus viridans ATCC 11563 = CCUG 4311; Y215H)”, in series [3], the Michaelis constant (Km) turned out to be 520 ± 120 µM.

B1: avLOX (Aerococcus viridans L-lactate oxidase) (Aerococcus viridans ATCC 11563 = CCUG 4311) (protein)
chain: MNNNDIEYNAPSEIKYIDVVNTYDLEEEASKVVPHGGFNYIAGASGDEWTKRANDRAWKHKLLYPRLAQDVEAPDTSTEILGHKIKAPFIMAPIAAHGLAHTTKEAGTARAVSEFGTIMSISAYSGATFEEISEGLNGGPRWFQIYMAKDDQQNRDILDEAKSDGATAIILTADSTVSGNRDRDVKNKFVYPFGMPIVQRYLRGTAEGMSLNNIYGASKQKISPRDIEEIAGHSGLPVFVKGIQHPEDADMAIKRGASGIWVSNHGARQLYEAPGSFDTLPAIAERVNKRVPIVFDSGVRRGEHVAKALASGADVVALGRPVLFGLALGGWQGAYSVLDYFQKDLTRVMQLTGSQNVEDLKGLDLFDNPYGYEY
In the case of B1, in series [4], the Km came out at 500 ± 100 µM and the turnover number (kcat) worked out at 88 ± 2 s⁻¹.

B2: Aerococcus viridans L-lactate oxidase Y215F variant (enzyme)
chain: MNNNDIEYNAPSEIKYIDVVNTYDLEEEASKVVPHGGFNYIAGASGDEWTKRANDRAWKHKLLYPRLAQDVEAPDTSTEILGHKIKAPFIMAPIAAHGLAHTTKEAGTARAVSEFGTIMSISAYSGATFEEISEGLNGGPRWFQIYMAKDDQQNRDILDEAKSDGATAIILTADSTVSGNRDRDVKNKFVYPFGMPIVQRYLRGTAEGMSLNNIFGASKQKISPRDIEEIAGHSGLPVFVKGIQHPEDADMAIKRGASGIWVSNHGARQLYEAPGSFDTLPAIAERVNKRVPIVFDSGVRRGEHVAKALASGADVVALGRPVLFGLALGGWQGAYSVLDYFQKDLTRVMQLTGSQNVEDLKGLDLFDNPYGYEY
notes: also called Y215F avLOX; avLOX Y215F mutant
As for B2, in series [5], the “stoichiometry N” value worked out at 4.
